Assay results: patent US20120114590A1 (priority 2005, published 2012)
Like-named read-outs stand apart in the source and are kept apart here. mPEG 20 kDa propionaldehyde = 20 kD methoxy-polyethylene glycol propionaldehyde, N-terminally conjugated

Legend:
HCV replicon [1] = conditions: IFNα at 10 IU/ml, replicon clones, compared to untreated control cell lines; cited from earlier work
HSV-2 = HSV-2 inhibition of cytopathic effect assay in Vero cells; type: cell-based, Herpes Simplex Virus-2; conditions: CPE assay
Description: The assay involves the killing of Vero cells by the cytopathic HSV-2 virus and the inhibition of cell killing by IL-28 and EL-29. The Vero cells are propagated in Dulbecco's modified essential medium (DMEM) containing phenol red with 10% horse serum, 1% glutamine and 1% penicillin-streptomycin, while the CPE inhibition assays are performed in DMEM without phenol red with 2% FBS, 1% glutamine and 1% Pen-Strep. On the day preceding the assays, cells were trypsinized (1% trypsin-EDTA), washed, counted and plated out at 10^4 cells/well in a 96-well flat-bottom BioCoat® plates (Fisher Scientific, Pittsburgh, Pa.) in a volume of 100 μl/well. The next morning, the medium was removed and a pre-titered aliquot of virus was added to the cells. The amount of virus used is the maximum dilution that would yield complete cell killing (>80%) at the time of maximal CPE development. Cell viability is determined using a CellTiter 96® reagent (Promega) according to the manufacturer's protocol, using a Vmax plate reader (Molecular Devices, Sunnyvale, Calif.). Compounds are tested at six concentrations each, diluted in assay medium in a half-log series. Acyclovir was used as a positive control. […] The average background and drug color-corrected data for percent CPE reduction and percent cell viability at each concentration are determined relative to controls and the IC50 calculated relative to the TC50.

Daudi cells = assay: Daudi cell proliferation (Alamar Blue); type: cell-based, human; conditions: 1000 ng/ml to 0.5 ng/ml, 72 h
Description: Human Daudi cells were suspended in RPMI+10% FBS at 50,000 cells/milliliter and 5000 cells were plated per well in a 96 well plate. […] IL-29-CEE was used at a concentration range of from 1000 ng/ml to 0.5 ng/ml. […] IFN-α2a was used at a concentration range of from 62 ng/ml to 0.03 ng/ml. Cells were incubated for 72 h at 37° C.

Dengue virus [2] = type: cell-based; conditions: Vero
Rhino 2 [3] = type: cell-based, rhino virus; conditions: Rhino 2, KB
Polio virus [4] = type: cell-based; conditions: Vero cells, Neutral Red Assay
[5] = test system: Influenza (type A [H3N2]); type: cell-based; conditions: Maden-Darby Canine Kidney cells, Neutral Red Assay
[6] = test system: liver, spleen and blood of mice; assay: ISG gene expression (OAS, Pkr, Mx1) in liver, spleen and blood of injected C57BL/6 mice (real-time PCR); type: in vivo, mouse; conditions: C57BL/6 mice, i.p or i.v, 10 μg-250 μg
Description: Mice were sacrificed at various time points (1 hr-48 hr). Spleens and livers were isolated from mice, and RNA was isolated. RNA was also isolated from the blood cells. The cells were pelleted and RNA isolated from pellets using RNAEasy®-kit (Qiagen). RNA was treated with DNase (Amicon) to rid RNA of any contaminating DNA. cDNA was generated using Perkin-Elmer RT mix (Perkin-Elmer). ISG gene induction was measured by real-time PCR using primers and probes specific for mouse OAS, Pkr and Mx1. To obtain quantitative data, HPRT real-time PCR was duplexed with ISG PCR. A standard curve was calculated using known amounts of IFN-stimulated mouse PBLs. All data are shown as expression relative to internal HPRT expression.

[7] = test system: Influenza (type A [H3N2]); type: cell-based; conditions: Vero
HHV-8 = HHV-8 replication in BCBL-1 cells (TaqMan PCR extracellular HHV-8 DNA; dye uptake TC50); type: cell-based, human herpesvirus-8; conditions: six days
Description: The therapeutic index (TI) is calculated as TC50/IC50.

[8] = test system: Respiratory syncytial virus; type: cell-based; conditions: MA-104 cells, Neutral Red Assay
Adenovirus [9] = type: cell-based
AML-12 cells = assay: ISG induction in the mouse liver cell line AML-12 (real-time PCR); type: cell-based; conditions: AML-12, 20 ng/ml, 48 hour time point; mRNA relative to HPRT gene expression
Description: AML-12 cells were plated in 6-well plates in complete DMEM media at a concentration of 2×10^6 cells/well. […] As a control, cells were either stimulated with mouse IFNα (positive control) or unstimulated (negative). […] RNA was isolated from cell pellets using RNAEasy-kit® (Qiagen, Valencia, Calif.). RNA was treated with DNase (Millipore, Billerica, Mass.) to clean RNA of any contaminating DNA. cDNA was generated using Perkin-Elmer RT mix. ISG gene induction was evaluated by real-time PCR using primers and probes specific for mouse OAS, Pkr and Mx1. To obtain quantitative data, HPRT real-time PCR was duplexed with ISG PCR. A standard curve was obtained using known amounts of RNA from IFN-stimulated mouse PBLs. All data are shown as expression relative to internal HPRT expression.

Rhino 9 [10] = type: cell-based, rhino virus; conditions: Rhino 9, HeLa
Polio virus [11] = type: cell-based; conditions: Vero
[12] = test system: Venezuelan equine encephalitis virus; type: cell-based; conditions: Vero
Parainfluenza virus [13] = type: cell-based; conditions: MA-104 cells, Neutral Red Assay
Dengue virus [14] = type: cell-based; conditions: Vero cells, Neutral Red Assay
Vaccinia virus [15] = type: cell-based; conditions: Vero cells, Neutral Red Assay
[16] = test system: Influenza (type A [H3N2]); type: cell-based; conditions: Maden-Darby Canine Kidney
Parainfluenza virus [17] = type: cell-based
Pichinde virus [18] = type: cell-based
Adenovirus [19] = type: cell-based; conditions: A549 cells, Neutral Red Assay
Pichinde virus [20] = type: cell-based; remark: listed apart in the source
[21] = test system: Venezuelan equine encephalitis virus; type: cell-based; conditions: Vero cells, Neutral Red Assay
[22] = test system: Influenza (type A [H3N2]); type: cell-based; conditions: Vero cells, Neutral Red Assay
Coxsackie B4 virus [23] = type: cell-based; conditions: KB cells, Neutral Red Assay
[24] = test system: Respiratory syncytial virus; type: cell-based
West Nile virus [25] = type: cell-based; conditions: Vero cells, Neutral Red Assay
Rhino 2 [26] = type: cell-based, rhino virus; conditions: Rhino 2, KB cells, Neutral Red Assay
West Nile virus [27] = type: cell-based; conditions: Vero
Coxsackie B4 virus [28] = type: cell-based; conditions: KB
Vaccinia virus [29] = type: cell-based; conditions: Vero
Rhino 9 [30] = type: cell-based, rhino virus; conditions: Rhino 9, HeLa cells, Neutral Red Assay
[31] = test system: 293 HEK cells overexpressing zcytor19; assay: Inhibition of ligand-induced ISRE-luciferase signaling by soluble receptors; type: cell-based, human; conditions: 10 ng/ml ligand, 10 micrograms/ml soluble receptor, 4-hour; relative to PBS alone
HCV replicon [32] = assay: HCV Replicon model in AVA5 cells, HCV RNA by dot blot hybridization assay; conditions: three consecutive days of treatment

IFNα
no antiviral activity: antiviral activity against HSV-2 (HSV-2)
85%: reduction of the amount of HCV RNA (HCV replicon [1])

B1: IL-29-CEE: IL-29 conjugated with glu tag (protein, UniProt Q8IU54 20-200, looked up)
Interferon lambda-1: GPVPTSKPTTTGKGCHIGRFKSLSPQELASFKKARDALEESLKLKNWSCSSPVFPGNWDLRLLQVRERPVALEAELALTLKVLEAAAGPALEDVLDQPLHTLHHILSQLQACIQPQPTAGPRPRGRLHHWLHRLQEAPKKESAGCLEASVTFNLFRLLTRDLKYVADGNLCLRTSTHPEST
modifications: Glu-Glu tag
notes: IL-29 conjugated with glu tag
no significant effect: effect on proliferation of Daudi cells (Daudi cells)

B2: IL-28A: human IL-28A cytokine polypeptide (zcyto20), e.g. SEQ ID NO:18; CHO-derived in Examples 16 and 18 (protein, listed as Homo sapiens)
chain: MKLDMTGDCTPVLVLMAAVLTVTGAVPVARLHGALPDARGCHIAQFKSLSPQELQAFKRAKDALEESLLLKDCRCHSRLFPRTWDLRQLQVRERPMALEAELALTLKVLEATADTDPALVDVLDQPLHTLHHILSQFRACIQPQPTAGPRTRGRLHHWLYRLQEAPKKESPGCLEASVTFNLFRLLTRDLNCVASGDLCV
modifications: SIGNAL (1)...(25)
0.1 µg/mL: EC50 Visual [7] | EC50 NR (Dengue virus [14])
did not induce ISG gene expression: ISG gene expression (OAS, Pkr, Mx1) in the livers, spleen and blood of mice [6]
0.02: PkR (AML-12 cells)
1 µg/mL: IC50 (extracellular HHV-8 DNA) (HHV-8)
0.1 ng/mL: EC50 NR (West Nile virus [25])
16%: Percent Inhibition of Ligand-induced ISRE Signaling by Huzcytor19-Fc/huCRF2-4-Fc [31]
92%: Percent Inhibition of Ligand-induced ISRE Signaling by Huzcytor19-Fc [31]
0.25 µg/mL: EC50 NR [22]
0.035 µg/mL: EC50 NR [21]
1.726 µg/mL: EC50 NR (Rhino 9 [30])
>1.672 µg/mL: EC50 NR (Polio virus [4])
0.01 µg/mL: EC50 Visual (Dengue virus [2]) | EC50 Visual [12]
80%: Percent Inhibition of Ligand-induced ISRE Signaling by HuCRF2-4-Fc [31]
0.01 ng/mL: EC50 Visual (West Nile virus [27])
91%: Percent Inhibition of Ligand-induced ISRE Signaling by Muzcytor19-Ig [31]
>10 µg/mL: IC50 Visual (Dengue virus [2]; numerator of SI) | EC50 Visual (Rhino 2 [3]) | IC50 Visual (Rhino 2 [3]; numerator of SI) | IC50 NR (Polio virus [4]) | EC50 NR [5] | IC50 NR [5] | IC50 Visual ([7]; numerator of SI) | EC50 NR [8] | IC50 NR [8] | EC50 Visual (Adenovirus [9]; A549) | IC50 Visual (Adenovirus [9]; A549, numerator of SI) | EC50 Visual (Rhino 9 [10]) | IC50 Visual (Rhino 9 [10]; numerator of SI) | EC50 Visual (Polio virus [11]) | IC50 Visual (Polio virus [11]; numerator of SI) | IC50 Visual ([12]; numerator of SI) | EC50 NR (Parainfluenza virus [13]) | IC50 NR (Parainfluenza virus [13]) | IC50 NR (Dengue virus [14]) | EC50 NR (Vaccinia virus [15]) | IC50 NR (Vaccinia virus [15]) | EC50 Visual [16] | IC50 Visual ([16]; numerator of SI) | EC50 Visual (Parainfluenza virus [17]; MA-104) | IC50 Visual (Parainfluenza virus [17]; MA-104, numerator of SI) | EC50 NR (Pichinde virus [18]) | IC50 NR (Pichinde virus [18]) | EC50 NR (Adenovirus [19]) | IC50 NR (Adenovirus [19]) | EC50 Visual (Pichinde virus [20]) | IC50 Visual (Pichinde virus [20]) | IC50 NR [21] | IC50 NR [22] | EC50 NR (Coxsackie B4 virus [23]) | IC50 NR (Coxsackie B4 virus [23]) | EC50 Visual ([24]; MA-104) | IC50 Visual ([24]; MA-104, numerator of SI) | IC50 NR (West Nile virus [25]) | EC50 NR (Rhino 2 [26]) | IC50 NR (Rhino 2 [26]) | IC50 Visual (West Nile virus [27]; numerator of SI) | EC50 Visual (Coxsackie B4 virus [28]) | IC50 Visual (Coxsackie B4 virus [28]; numerator of SI) | EC50 Visual (Vaccinia virus [29]) | IC50 Visual (Vaccinia virus [29]; numerator of SI) | IC50 NR (Rhino 9 [30])
0.06: Mx1 (AML-12 cells)
0.04: OAS (AML-12 cells)

B3: PEG-rIL-29-d2-7 (conjugate)
chain: {mPEG 20 kDa propionaldehyde}-MKPTTTGKGCHIGRFKSLSPQELASFKKARDALEESLKLKNWSCSSPVFPGNWDLRLLQVRERPVALEAELALTLKVLEAAAGPALEDVLDQPLHTLHHILSQLQACIQPQPTAGPRPRGRLHHWLHRLQEAPKKESAGCLEASVTFNLFRLLTRDLKYVADGNLSLRTSTHPEST
0.000516 µg/mL: EC50 (HCV RNA, dot blot hybridization assay) (HCV replicon [32])
